# Laboratory results published in the supplement of paper PMC10567573.
# B1: CDC25B (parent)
# chain: ELKTFRLKTRSWAGERSRRELCSR
# B2: CDS2 (parent)
# chain: IHSIALSTFASLIGPFGGFFASGF
# Variants of: B1
# Experiment: protein stability index of a GFP-peptide fusion (GPS, HEK-293T) (PSI 1-6); higher = more stable
# Settings: c terminus: a fixed tail appended
# 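Also: lentivirally expressed fusions sorted by FACS into six bins by GFP to DsRed ratio, PSI derived from sequencing read proportions per bin multiplied by bin number.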
row,Variant,protein stability index
1,ELKTFRLKTRSWAGERSRRELCWR,2.69
2,ELKTFRLKTRSWAGERSRRELCQR,3.39
3,ELKTFRLKTRSWAGERSRRELCVR,2.25
4,ELKTFRLKTRSWAGERSRRELCTR,3.89
5,ELKTFRLKTRSWAGERSRRELCRR,2.87
6,ELKTFRLKTRSWAGERSRRELCYR,3.83
7,ELKTFRLKTRSWAGERSRRELCSM,2.34
8,ELKTFRLKTRSWAGERSRRELCSH,3.3
9,ELKTFRLKTRSWAGERSRRELCSG,2.59
10,ELKTFRLKTRSWAGERSRRELCSC,2.9
11,ELKTFRLKTRSWAGERSRRELCSW,2.58
12,ELKTFRLKTRSWAGERSRRELCST,2.73
13,ELKTFRLKTRSWAGERSRRELCSA,2.72
14,ELKTFRLKTRSWAGERSRRELCSE,3.39
15,ELKTFRLKTRSWAGERSRRELCSQ,3.23
16,ELKTFRLKTRSWAGERSRRELCSI,2.86
17,ELKTFRLKTRSWAGERSRRELCSF,1.85
18,ELKTFRLKTRSWAGERSRRELCSN,3.38
19,ELKTFRLKTRSWAGERSRRELCSS,3.28
20,ELKTFRLKTRSWAGERSRRELCSL,3
21,ELKTFRLKTRSWAGERSRRELCSP,2.82
22,ELKTFRLKTRSWAGERSRRELCSK,3.38
23,ELKTFRLKTRSWAGERSRRELCSD,2.91
24,ELKTFRLKTRSWAGERSRRELCSV,2.7
25,ELKTFRLKTRSWAGERSRRELCSY,2.33

# Variants of: B2
# Experiment: as above
# Settings: c terminus: a fixed tail appended
row,Variant,protein stability index
1,IASIALSTFASLIGPFGGFFASGF,2.61
2,IDSIALSTFASLIGPFGGFFASGF,2.57
3,ISSIALSTFASLIGPFGGFFASGF,2.03
4,IQSIALSTFASLIGPFGGFFASGF,2.43
5,IMSIALSTFASLIGPFGGFFASGF,2.79
6,IHSIALSTFASLIGPFGGFFATGF,2.96
7,IHSIALSTFASLIGPFGGFFAIGF,2.2
8,IHSIALSTFASLIGPFGGFFADGF,2.53
9,IHSIALSTFASLIGPFGGFFAMGF,3.08
10,IHSIALSTFASLIGPFGGFFAKGF,1.71
11,IHSIALSTFASLIGPFGGFFARGF,3.24
12,IHSIALSTFASLIGPFGGFFAHGF,2.03
13,IHSIALSTFASLIGPFGGFFAWGF,2.44
14,IHSIALSTFASLIGPFGGFFAQGF,2.57
15,EHSIALSTFASLIGPFGGFFASGF,4.34
16,QHSIALSTFASLIGPFGGFFASGF,1.48
17,GHSIALSTFASLIGPFGGFFASGF,2.84
18,NHSIALSTFASLIGPFGGFFASGF,2.63
19,AHSIALSTFASLIGPFGGFFASGF,3.5
20,HHSIALSTFASLIGPFGGFFASGF,2.21
21,DHSIALSTFASLIGPFGGFFASGF,1.79
22,YHSIALSTFASLIGPFGGFFASGF,3.05
23,IHSIALSTFASLIGPFGGFFASQF,2.79
24,IHSIALSTFASLIGPFGGFFASMF,3.23

row,Variant,protein stability index
1,IHSIALSTFASLIGPFGGFFASKF,2.05
2,IHSIALSTFASLIGPFGGFFASFF,2.67
3,IHSIALSTFASLIGPFGGFFASTF,2.53
4,IHSIALSTFASLIGPFGGFFASSF,1.46
5,IHSIALSTFASLIGPFGGFFFSGF,2.83
6,IHSIALSTFASLIGPFGGFFNSGF,2.8
7,IHSIALSTFASLIGPFGGFFISGF,3
8,IHSIALSTFASLIGPFGGFFQSGF,3.25
9,IHSIALSTFASLIGPFGGFFHSGF,4.77
10,IHSIALSTFASLIGPFGGFFWSGF,2.61
11,IHSIALSTFASLIGPFGGFFPSGF,2.4
12,IHSIALSTFASLIGPFGGFFESGF,2.24
13,IHSIALSTIASLIGPFGGFFASGF,3.79
14,IHSIALSTQASLIGPFGGFFASGF,3.22
15,IHSIALSTWASLIGPFGGFFASGF,2.81
16,IHSIALSTNASLIGPFGGFFASGF,2.11
17,IHSIALSTLASLIGPFGGFFASGF,3.88
18,IHSIALSTDASLIGPFGGFFASGF,2.15
19,IHSIALSTPASLIGPFGGFFASGF,2.63
20,IHSIALSTCASLIGPFGGFFASGF,2.62
21,IHSIALSTFASLIGPFGGCFASGF,2.63
22,IHSIALSTFASLIGPFGGRFASGF,2.72
23,IHSIALSTFASLIGPFGGWFASGF,3.48
24,IHSIALSTFASLIGPFGGTFASGF,3.17

row,Variant,protein stability index
1,IHSIALSTFASLIGPFGGMFASGF,4.02
2,IHSIALSTFASLIGPFGGQFASGF,3.63
3,IHSIALSTFASLIGPFGGPFASGF,2.01
4,IHSIALSTFASLIGPFGGLFASGF,3.19
5,IHSIALSTFASLIGPFGGAFASGF,2.87
6,IHSIALSTFASLIGPFGGEFASGF,3.01
7,IHSIALSTFASLIGPFGGSFASGF,2.78
8,IHSIALSTFASLIGPRGGFFASGF,2.29
9,IHSIALSTFASLIGPQGGFFASGF,3.71
10,IHSIALSTFASLIGPDGGFFASGF,3.08
11,IHSIALSTFASLIGPAGGFFASGF,3.6
12,IHSIALSTFASLIGPVGGFFASGF,2.96
13,IHSIALSTFHSLIGPFGGFFASGF,2.85
14,IHSIALSTFDSLIGPFGGFFASGF,3.54
15,IHSIALSTFVSLIGPFGGFFASGF,3.29
16,IHSIALSTFNSLIGPFGGFFASGF,1.6
17,IHSIALSTFWSLIGPFGGFFASGF,3.06
18,IHSIALSTFFSLIGPFGGFFASGF,3.04
19,IHSIALSTFMSLIGPFGGFFASGF,3.11
20,IHSIALSTFASLIPPFGGFFASGF,2.67
21,IHSIALSTFASLIRPFGGFFASGF,2.97
22,IHSIALSTFASLIEPFGGFFASGF,2.76
23,IHSIALSTFASLIKPFGGFFASGF,3.34
24,IHSIALSTFASLIIPFGGFFASGF,2.82

row,Variant,protein stability index
1,IHSIALSTFASLIMPFGGFFASGF,2.48
2,IHSIALSTFASLILPFGGFFASGF,3.66
3,IHSIVLSTFASLIGPFGGFFASGF,1.84
4,IHSIKLSTFASLIGPFGGFFASGF,3.47
5,IHSIELSTFASLIGPFGGFFASGF,3.98
6,IHSITLSTFASLIGPFGGFFASGF,2.36
7,IHSISLSTFASLIGPFGGFFASGF,3.12
8,IHSINLSTFASLIGPFGGFFASGF,4.35
9,IHSIGLSTFASLIGPFGGFFASGF,2.93
10,IHSIPLSTFASLIGPFGGFFASGF,2.54
11,IHSIQLSTFASLIGPFGGFFASGF,3.47
12,IHSIDLSTFASLIGPFGGFFASGF,2.51
13,IHTIALSTFASLIGPFGGFFASGF,2.8
14,IHIIALSTFASLIGPFGGFFASGF,3.44
15,IHKIALSTFASLIGPFGGFFASGF,3.55
16,IHGIALSTFASLIGPFGGFFASGF,2.49
17,IHQIALSTFASLIGPFGGFFASGF,2.4
18,IHLIALSTFASLIGPFGGFFASGF,4.15
19,IHSIALSTFASLIGPFRGFFASGF,2.63
20,IHSIALSTFASLIGPFPGFFASGF,2.78
21,IHSIALSTFASLIGPFHGFFASGF,3.56
22,IHSIALSTFASLIGPFTGFFASGF,4.3
23,IHSIALSTFASLIGPFYGFFASGF,2.06
24,IHSIALSTFASLIGPFEGFFASGF,3.13

row,Variant,protein stability index
1,IHSIALSTFASLIGPFVGFFASGF,2.5
2,IHSIALSTFASLIGLFGGFFASGF,4.3
3,IHSIALSTFASLIGNFGGFFASGF,2.82
4,IHSIALSTFASLIGAFGGFFASGF,2.41
5,IHSIALSTFASLIGGFGGFFASGF,3.77
6,IHSIALSTFASLIGDFGGFFASGF,3.92
7,IHSIALSTFASLIGKFGGFFASGF,1.77
8,IHSIALSTFASRIGPFGGFFASGF,1.6
9,IHSIALSTFASWIGPFGGFFASGF,3.43
10,IHSIALSTFASCIGPFGGFFASGF,2.74
11,IHSIALSTFASEIGPFGGFFASGF,2.51
12,IHSIALSTFASFIGPFGGFFASGF,4.01
13,IHSIALSTFASIIGPFGGFFASGF,2.76
14,IHSPALSTFASLIGPFGGFFASGF,3.8
15,IHSRALSTFASLIGPFGGFFASGF,3.04
16,IHSHALSTFASLIGPFGGFFASGF,2.91
17,IHSYALSTFASLIGPFGGFFASGF,2.14
18,IHSEALSTFASLIGPFGGFFASGF,2.14
19,IHSIALSTFASLAGPFGGFFASGF,2.25
20,IHSIALSTFASLLGPFGGFFASGF,2.64
21,IHSIALSTFASLKGPFGGFFASGF,2.49
22,IHSIALSTFASLSGPFGGFFASGF,2.8
23,IHSIALSTFASLNGPFGGFFASGF,2
24,IHSIALSTFASLTGPFGGFFASGF,2.77

row,Variant,protein stability index
1,IHSIALSTFASLIGPFGGFNASGF,2.68
2,IHSIALSTFASLIGPFGGFRASGF,2.86
3,IHSIALSTFASLIGPFGGFCASGF,4.04
4,IHSIALSTFASLIGPFGGFTASGF,3.03
5,IHSIALSTFASLIGPFGGFAASGF,1.97
6,IHSIALSTFASLIGPFGGFKASGF,2.68
7,IHSIALSTFASLIGPFGGFLASGF,2.98
8,IHSIALSTFAILIGPFGGFFASGF,3.73
9,IHSIALSTFACLIGPFGGFFASGF,2.7
10,IHSIALSTFAFLIGPFGGFFASGF,3.22
11,IHSIALSTFAALIGPFGGFFASGF,2.88
12,IHSIALSTFAQLIGPFGGFFASGF,3.26
13,IHSIALSTFAKLIGPFGGFFASGF,3.22
14,IHSIALSTFATLIGPFGGFFASGF,2.57
15,IHSIALSTFAELIGPFGGFFASGF,3.35
16,IHSIAASTFASLIGPFGGFFASGF,2.63
17,IHSIAFSTFASLIGPFGGFFASGF,2.34
18,IHSIATSTFASLIGPFGGFFASGF,1.39
19,IHSIAKSTFASLIGPFGGFFASGF,3.48
20,IHSIAMSTFASLIGPFGGFFASGF,4.1
21,IHSIAQSTFASLIGPFGGFFASGF,2.28
22,IHSIALPTFASLIGPFGGFFASGF,2.88
23,IHSIALTTFASLIGPFGGFFASGF,2.71
24,IHSIALCTFASLIGPFGGFFASGF,1.83

row,Variant,protein stability index
1,IHSIALQTFASLIGPFGGFFASGF,2.64
2,IHSIALATFASLIGPFGGFFASGF,2.22
3,IHSIALFTFASLIGPFGGFFASGF,3.48
4,IHSIALSTFASLIGPFGMFFASGF,3.05
5,IHSIALSTFASLIGPFGSFFASGF,2.36
6,IHSIALSTFASLIGPFGHFFASGF,2.38
7,IHSIALSTFASLIGPFGCFFASGF,2.46
8,IHSIALSTFASLIGPFGDFFASGF,4.39
9,IHSIALSTFASLIGPFGPFFASGF,2.83
10,IHSIALSTFASLIGPFGGFFASGM,2.8
11,IHSIALSTFASLIGPFGGFFASGW,3.66
12,IHSIALSTFASLIGPFGGFFASGD,3.08
13,IHSIALSTFASLIGPFGGFFASGV,3.32
14,IHSIALSTFASLIGPFGGFFASGT,3.42
15,IHSIALSTFASLIGPFGGFFASGN,3.11
16,IHSIALSRFASLIGPFGGFFASGF,3.47
17,IHSIALSEFASLIGPFGGFFASGF,2.67
18,IHSIALSVFASLIGPFGGFFASGF,2.86
19,IHSIALSGFASLIGPFGGFFASGF,2.63
